Laboratory results from a protein production outcome set (Wang et al. 2014).

assay: label from the status in PepcDB records

Question: Which protein production does the source give for “MEETPKTTLPHKFLKNILMLDVLKVRIYPNKEQEISLAKSFGCSRFVWNFYLNKTNTQYEETGKGMTYCQMAKDLTQLKKLSDYEWLQEPTAAVLQQSLKNLESAFKNFFSKRAGFPKFKSKHSKQSIRFPESCSIKDSGLKLPKLGIVKVSLSKKINSKIKSVTVSKTSTGKYFAALLFEAKDLTNNKQGKISGIDLGLTSLITVFDGETCYKVDPIKPTRKYAKRLRIRQKALSRKVKGSNNRRKAIKVVAKVHEKISNTRQDFLHKLSRKLVDDNQIIVAENLCVKGLARTKLAKSIHDAGFGMLLNFISYKLEREGGKFVQVDRFFPSSKLCSCCGHKNNLLNLSIREWICPSCQTTHDRDENASRNLRTEGIRILETNTAGHAEIQACGETVRLVGTCAKKRVSEKQESPATLLCG” here?
Answer: The protein production was “failed”.

Question: With “MEEWPALQWSQGTPASGPALQALEEYAFVPRDDESRQGIRTDALLVIRDGRLLYERYAGATGPQTPHLAWSASKSLLAVLLGVAFGEGRFQLQDPAAKFYPPLEAHPDITLADLLHWASGLDWQEDYEYAPLNSSVVAMLYTRGHRDMAAFTVQQAASGPPGQVFRYSSGDSNLLAASLRGMVGEGQYADYPWRALFEPLGITQAVWERDAAGTFVASSYLYLTARDLARIGLLMQRDGRWRDRQLLPKAWVEFCRTPFRGYRANQDVAVAGGHWWLNREVDGAPRPWPDAPADTYAALGHWGQALYVLPAQRLVIVRYGDDRDGSYQHNELLKRVLAAFATPEQPLEHHHHHH” as the sequence, how does the protein production read?
Answer: Its protein production is “failed”.

Question: Which protein production does the source give for “MEFGYIGLMVSVVLIGISVYGFLNSKNIVRIFLSSEILVNASILIVFSVSSLTNQVYLPIYFSLFAIGMALVEIVVAFAAIFLYYKNKGSLEVE” here?
Answer: The protein production was “failed”.

Question: With “MEFNLRCSESMPDFSRVGMMDEDIPNVRGRGPSQPRGFLRSQIRAPCALMKGLSDIDQEITMAFIKALAVQHQKRSLERRKIRKKINRILRRVIAISRELHTLNSHPGDWIELGISEFDRIPDCMMPILELAGQGVQLFYKSRRVS” as the sequence, how does the protein production read?
Answer: Its protein production is “failed”.

Question: Which protein production does the source give for “MEGFSPPINTAQVDAKTKLDEKVDYSNLPCPVLYEELNREATMALKPELFEGFRLDYNKSLNQKFFLSHSILMGPTEVPNPTPSSEIIKIPTANYDFGAGFIDPKLYLIGRITTDGRLNARAKFDLTDNFSVKANALLTDEEDKSQGHLVIDYKGSDYRTQLQLGNNSVYAANYIQHVTPHLSLGGEAFWLGQQLMSGVGYAARYETDKTVASGQIASTGVAVMNYVHKVSEKLSFATDFIYNYLSRDVTASVGYDLITRQSRLRGKVDSNGVVAAYLEEQLPIGLRFLLSAEVDHVKKDYKFGFGVNAF” here?
Answer: The protein production was “failed”.

Question: Which protein production does the source give for “MEGITSFENLPEELKREILLRMSPNSLVTCSRVSKKLASMIRTKSFKELYLSRSMRCPRVLFAANGTITPHVLFTSFQEKEKPLLSSGEQRIITSLQGEFLFSPPVRGLICLVERESARIVICNPGTTKFLALPIVEADETTRIITHLGYDEQKDVFKVLCTRTKPETPHLVLTVGSGKEPWREIVCKFPHTVIGAGVFYRGTLYYLAAFHSKSIIMTFDVRSETFMPITSPDGVDLNQGSWRLVNYSQQGGFALVNESRGFIYQSNGGDAYLETWVWNVDTRKWSMNSILIRKWKDYAQDNEDYDYRFRGTQGTYELVFAPIRVKEDGSLTVILYNTDTQAFRRSKVQMMGEGHEFRFVDTFLDHVDSTLLI” here?
Answer: The protein production was “failed”.

Question: Which protein production does the source give for “MEGKTLIVSVLIMSLFMAQNQVDANICCPSIQARTFYNACLFAVGSPSSCIRNSSCLDISESTCPRGYTNDILENTGDAVTEYCKLGCVSSVCGALTILQNSDASEIVNGEVEKCTMACSTVCTKGSMNAVENA” here?
Answer: The protein production was “failed”.

Question: Which protein production does the source give for “MEGLAAFIIITLMIIIVPGPDFFVVMKNSITSGKGNGAMAALGITSGHVVYSLLAVFGIIFILANMYYVFVTIKILGAIYLIYLGIRSIISARQSMNFSTSQLKAQRITYLSSYRQGFFSTILNPKALLYYISILPQFLSTGEAVTSQIAILTAIVTTVILLWFIFCVYIFQYIKLLFTNRKIKAIFDYTVGAILIGLSLNLLLSKSS” here?
Answer: The protein production was “failed”.

Question: For “MEGNQAGSSLDSLIASFNKRIGELQELVIARNMYPASTIPDLSAIDTALSSMELQVQSIKDRLREETEAIPKAKKLIEASLKQQGKLQKMSIYAPSHFPDKATMLNSDLNRCLLQENAKQYEQHSTLSSLKFDEEAAVLPKEKKGRGSPPLWYITVEELNSLSSYMRGRLTLEKVNAAINDMASYAEANAHLIAASKQKLAENLWEKALKLRDIVTEQAVKGKHFFLETDMKGPSLKLDNTGKAILTVLRHLGRISETRIGQNRVIILMKPH”, which protein production is on record?
Answer: The protein production was “failed”.

Question: With “MEGNSDSMILVTVNPKTKKTTMTSLERDILVKLSGSKTNDQTGYDAKLNAAYAAGGAKMAIMTVQDMLDIKIDKYVQINMEGLVQLVDAVGGITVTNHFDFPISIEEHEPEFTASVEPGTHKINGEQALVYSRMRYDDPDGDYGRQKRQREVISKVLKKILALDSVSKYRKILSAVSKNMQTNIEISSSTIPKLLGYSDALKSIRTYQLKGEGTTIDGGSYQLVTSKELLKAQNRIKGQLGLKKSTAENLKTTASLYENFYGGDTSIYDSSSSASDYSSSGNYSGSSSDYGSSSSYGSNSSSGSSSDYSGQNSYNQGNYQQPAAGTGIGNLEHHHHHH” as the sequence, how does the protein production read?
Answer: The protein production was “not failed”.

Question: For “MEGSTGFDGDATTFFAPDAVFGDRVRRFQEFLDTFTSYRDSVRSIQVYNSNNAANYNDDQDDADERDLLGDDDGDDLEKEKKAASSTSLNILPHRIIISLDDLREFDRSFWSGILVEPAYFIPPAEKALTDLADSMDDVPHPNASAVSSRHPWKLSFKGSFGAHALSPRTLTAQHLNKLVSVEGIVTKTSLVRPKLIRSVHYAAKTGRFHYRDYTDATTTLTTRIPTPAIYPTEDTEGNKLTTEYGYSTFIDHQRITVQEMPEMAPAGQLPRSIDVILDDDLVDKTKPGDRVNVVGVFKSLGAGGMNQSNSNTLIGFKTLILGNTVYPLHARSTGVAARQMLTDFDIRNINKLSKKKDIFDILSQSLAPSIYGHDHIKKAILLMLMGGVEKNLENGSHLRGDINILMVGDPSTAKSQLLRFVLNTASLAIATTGRGSSGVGLTAAVTTDRETGERRLEAGAMVLADRGVVCIDEFDKMTDVDRVAIHEVMEQQTVTIAKAGIHTTLNARCSVIAAANPVFGQYDVNRDPHQNIALPDSLLSRFDLLFVVTDDINEIRDRSISEHVLRTHRYLPPGYLEGEPVRERLNLSLAVGEDADINPEEHSNSGAGVENEGEDDEDHVFEKFNPLLQAGAKLAKNKGNYNGTEIPKLVTIPFLRKYVQYAKERVIPQLTQEAINVIVKNYTDLRNDDNTKKSPITARTLETLIRLATAHAKVRLSKTVNKVDAKVAANLLRFALLGEDIGNDIDEEESEYEEALSKRSPQKSPKKRQRVRQPASNSGSPIKSTPRRSTASSVNATPSSARRILRFQDDEQNAGEDDNDIMSPLPADEEAELQRRLQLGLRVSPRRREHLHAPEEGSSGPLTEVGTPRLPNVSSAGQDDEQQQSVISFDNVEPGTISTGRLSLISGIIARLMQTEIFEEESYPVASLFERINEELPEEEKFSAQEYLAGLKIMSDRNNLMVADDKVWRV”, which protein production is on record?
Answer: The protein production was “failed”.

Question: Which protein production does the source give for “MEGTLSFVSGFAPAVYRRELFRHRCVTTAPEARAWPRLGLLRANSGARLSRVDITPEIYKRLVSMAKRTEGNFSAVAGAILESYLTAATNRDLRAVIFDMDGVLCDSERLSRAAGVEYFRRYHGVWPTEKDFADFAGTGEAAFLSGVARRYSVKDFDVNKAKEGFFNIYVNEYVSALEPFEGVREFIQQIKTMGLKTALASSADAIKVHANLSAIGFERDMFDFVTRSDEIANKKPAPDIFLAAAEGLGVPPESCVVIEDAPAGVLAAKRARMRCVAVATSVSAQLLWDAGADIVRPAPQYIMLDDIVITDDADASAPASASQE” here?
Answer: Its protein production is “failed”.

Question: With “MEGYSRNGEISPKLLDLMIPQERRNWFHDEKNSVFKTEEKKLELKLGPPGEEDDDESMIRHMKKEPKDKSILSLAGKYFSPSSTKTTSHKRTAPGPVVGWPPVRSFRKNLASGSSSKLGNDSTTSNGVTLKNQKCDAAAKTTEPKRQGGMFVKINMYGVPIGRKVDLSAHNSYEQLSFTVDKLFRGLLAAQRDFPSSIEDEKPITGLLDGNGEYTLTYEDNEGDKMLVGDVPWQMFVSSVKRLRVIKTSEISSALTYGNGKQEKMRR” as the sequence, how does the protein production read?
Answer: Its protein production is “failed”.

Question: With “MEHSSGTKLLLTLSLFFCLISGAEAADSHALDSGDVNLSELKAFDLLCKCETWGIVNTVSLSSTGNYLVAGGFDRNVSLFDSRGTQLWNYKTEDIVYTVSISSDGSRIVAGSNDKKVYFFNREGDLLWSHKTGGNINSVAVSSNGLYVAAGGEDGKVYFMNSAGKLLWSFDSEAAVRSIAISRDGTYVAVGNANNYVYLFDSEGKTIWNRKTGSLINCVSMTPYAYYVAAGGSNYNVYLFDRKGEFSWMNNPGYWVSSVSLTTNGAYLAAGSFDDMIYLFNRTGGKIWDYKAKDDVYAVEISADSSFIAAGSWDDTLYVLNMDGEELWNYNCGGNINSLDVSRDSTTIAVGSDAGAVYLFERNPTAFALLLGDESFLPEETTKETDTSLAEKTIKPIEEETAVTGGVENKVEDAPATSSSVSGNPKTGENPGSEELPTEESSLKLLEKFDSIKFPAALLLGALAGTVFFLKRRLVKYHEKNDENLEDLEEKDIRE” as the sequence, how does the protein production read?
Answer: The protein production was “failed”.

Question: With “MEIAPSTSRFKLYDQFELLEFPDKYVVKPIESPEEGFSVNRRDGNIKPLDENASSGSPTRVSTIYGVGGTIRLLAGTYLLVITSREEVGNFLGLPIFRVTAMKFLPCNEALRFATAQEKKDETYFRTLLQALETTPGLYFSYETDLTLNLQRRCKLAEGWNRKPMWKQADPRYVWNWHLLEDLIECKLDGFIIPILQGSYQVAELKLKNSPAVVSIMSRRCTRRLGTRMWRRGANLEGDAANFVESEQIVEINGFKFSLLQVRGSIPLLWEQIVDLSYKPRLKINKHEETPKVVQRHFHDLCQRYGEIMAVDLTDQHGDEGALSKAYATEMEKLPDVRYVSFDFHQVCGTTNFDNLGVLYEQIGDEFEKQGYFLVDADENILEEQKGVIRSNCIDCLDRTNVTQSFMGQKSLNLQLQRIGVCDSTECISTFEDDYTKFRTIWAEQGDEVSLQYAGTYALKGDLVRYGKQTMTGAIKDGLSAMSRYYLNNFQDGVRQDALDLISGRYTVGTHSPSQLQPIGSQPSFLPVASALLIGGVTVTSFTIHQAGRNTQQYLASALWAGVTAGVVAMIKANGRHLTSRPRLCHLI” as the sequence, how does the protein production read?
Answer: Its protein production is “failed”.

Question: For “MEIGLSLGLKSDEGGLKLSLSECGCHVEDITIELEGGASWFYQGMVNAFKDQIGSSVESTIAKKLTEGVSDLDSFLQSLPKEIPVDDNADLNVTFTSDPILRNSSITFEIDGLFTKGETNQVLKSFFKKSVSLVICPGNSKMLGISVDEAVFNSAAALYYNADFVQWVVDKIPEQSLLNTARWRFIIPQLYKKYPNQDMNLNISLSSPPLVKISEQYVGANVNADLVINVLDANQVIPVACISLMIRGSGALRVMGNNLGGSVSLEDFSMSLKWSNIGNLHLHLLQPIVWTVIQTVFVPYANDHLEKGFPLPIMHGFTLQNAEIICSESEITVCSDVAYLDSSQQPQWL”, which protein production is on record?
Answer: The protein production was “failed”.

Question: For “MEIGRVVGNVWATRKDEKLNGQKFLIVKLLVSKDKEKEGLFVAADNAGAGIGDIVLITKGGAARQSIGNREVPIDAAIVGIVDSIDIEEDLEHHHHHH”, which protein production is on record?
Answer: Its protein production is “not failed”.

Question: For “MEIGVSGASGQLGKAVLAELAARGAGHRVVGISRTPERVPAPAQGRLGDYDRAETLLQAYRGLDRLLLIPSADLGPGVRGRQFTAAIDAAVRAGVKHIVMVSTAGTRELAEPALGAAYWVGEQRLVKTAPRWTILRMNYYAESFAQQAPMFLGSGILPGLGENRVAFVSRDDVAAAAAGILLGEGHAGAIYNATGPVALSGAQRAALVAELSGKPLRFAVSDEAPLRQGLAQAGLPGGFVDAVIDLEKSFVAGAFDVVTGDVARLAGREPRALRTLLADSLRPAVADA”, which protein production is on record?
Answer: The protein production was “failed”.

Question: With “MEIHSSAAAEVFPVCRSLLGKLPAHSHNRSVAPTVCDYYPQIMKTYNSKMTTQHSSDIRNSQNISASFVTPHDAPVTSRKYVPKFNSNNHRIKTAAAFEKGSDIYHAVRPNYPNSVIELLNLSPNSRVLDIGCGTGKLTEQIAQQTSSVYALDPSKDMLDSFRSTLDIPSWQATAEQTAVSDSRFSTLTCAQTWHWVEPLAASAELDRISTDDAQLLLVWNTLDVSVPWVHRLSRIMHSGDTLAEGFIPHVAQPWELVSVLRGKHAQELYPDQIHTLAHTRSYWLRASEKTREKLTHNLSWYLTDHLELPSTSLVEIPYRFDAFLYKKALVKTQ” as the sequence, how does the protein production read?
Answer: The protein production was “failed”.
